Experiments:
SOD1(A4V)-GFP = molecular target: T1, SOD1(A4V)-GFP (Homo sapiens, UniProt P00441, A5V); assay: Fluorescence of E. coli cells co-expressing SOD1(A4V)-GFP and cyclic peptide; format: cell-based; conditions: co-expression of cyclic peptide; compared to random cyclic peptides from initial library
T1 construct: polyHis; expressed in transfected cells; host or cells: E. coli Origami 2(DE3) (BL21(DE3) for the FACS screen)
Source text: Electrocompetent E. coli BL21(DE3) cells (Novagen, USA) carrying either the expression vector pETSOD1(A4V)-GFP, which produces SOD1(A4V)-GFP under control of the strong bacteriophage T7 promoter, or pETAβ42-GFP, which produces Aβ42-GFP under control of the T7 promoter, were co-transformed with the combined pSICLOPPS-NuX1X2X3-X5 vector library. Approximately 10^8 transformants carrying both the vector library and either pETSOD1(A4V)-GFP or pETAβ42-GFP vectors were harvested, pooled together, and grown in Luria-Bertani (LB) liquid medium containing either 0.005% (pETSOD1(A4F)-GFP) or 0.002% (pETAβ42-GFP) L-arabinose—the inducer of cyclic peptide production—at 37° C. with shaking. When the optical density at 600 nm (OD600) of the bacterial culture was about 0.5, 0.01 (pETSOD1(A4F)-GFP) or 0.1 (pETAβ42-GFP) mM isopropyl-β-D-thiogalactoside (IPTG) was added to the medium to induce overexpression of the reporter. […] The isolated cells were re-grown and screened for additional rounds in an identical manner until the desired enrichment in high-fluorescence clones was achieved.
For SOD1 or SOD1-GFP production, BL21(DE3) (Novagen, USA) or Origami 2(DE3) cells (Novagen, USA) were transformed with the corresponding SOD1- or SOD1-GFP-encoding vector, either with the appropriate pSICLOPPS vector or alone. […]
Bacterial cells corresponding to 1 mL culture with OD600=1 were harvested by centrifugation and re-suspended in 100 μL phosphate-buffered saline (PBS), transferred to a 96-well FLUOTRAC 200 plate (Greiner Bio One International, Austria), and their fluorescence was measured using a TECAN Safire II-Basic plate reader (Tecan, Austria). Excitation was set at 488 nm and emission was measured at 510 nm.

Aβ42-GFP = molecular target: T2, Aβ42-GFP (Homo sapiens, UniProt P05067); assay: High-throughput sequencing of pSICLOPPS vectors isolated after bacterial sorting for enhanced Aβ42-GFP fluorescence; conditions: Table 3, cyclo-TXXR tetrapeptides
T2 construct: a chimeric fusion of the human Aβ(1-42) peptide (Aβ42) with GFP; expressed in transfected cells; host or cells: E. coli BL21(DE3)
Method in brief: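 Peptide inserts recovered from repeatedly sorted high-GFP clones were sequenced on Ion Torrent, excluding stop-codon-containing reads. Sorting used BL21(DE3) cells carrying pETAβ42-GFP plus the tetra-, penta- and hexapeptide pSICLOPPS library. Peptide production was induced with 0.002% L-arabinose and the reporter with 0.1 mM IPTG at OD600 ~0.5, at 37° C.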

T1 sequence (P00441 whole entry A5V): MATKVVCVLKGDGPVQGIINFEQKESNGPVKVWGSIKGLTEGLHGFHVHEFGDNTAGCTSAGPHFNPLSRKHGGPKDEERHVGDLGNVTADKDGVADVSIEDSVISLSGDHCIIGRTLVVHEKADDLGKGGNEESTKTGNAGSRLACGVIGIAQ

Row | Substance | SOD1(A4V)-GFP fluorescence of E. coli cells (SOD1(A4V)-GFP) | Normalized read number (%) (Aβ42-GFP)
1 | cyclo-TASFW (cyclic) | highest levels of cellular SOD1(A4V)-GFP fluorescence | 
2 | cyclo-TFSMW (cyclic) | highest levels of cellular SOD1(A4V)-GFP fluorescence | 
3 | cyclo-TTRR (cyclic) [AβC4-11] |  | 1.2
4 | cyclo-TTSR (cyclic) [AβC4-31] |  | 0.3241

From patent US12559863B2, “Macrocyclic modulators of disease associated protein misfolding and aggregation” (RESQ BIOTECH, priority 2017, dated 2026)
